Biological target: Metallothionein-2 (UniProt P02795)
Experiment: SPR

Chain of Metallothionein-2 (P02795 whole entry): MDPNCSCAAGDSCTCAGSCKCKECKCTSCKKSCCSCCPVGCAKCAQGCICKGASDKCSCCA

B1: Transgelin-2 (protein)
chain: ANRGPAYGLSREVQQKIEKQYDADLEQILIQWITTQCRKDVGRPQPGRENFQNWLKDGTVLCELINALYPEGQAPVKKIQASTMAFKQMEQISQFLQAAERYGINTTDIFQTVDLWEGKNMACVQRTLMNLGGLAVARDDGLFSGDPNWFPKKSKENPRNFSDNQLQEGKNVIGLQMGTNRGASQAGMTGYGMPRQIL
Q: For B1, which Kd is on record?
A: 110 nM

— paper PMC6310021 (2018)
